Reference: the supplement of paper PMC9170038

Tests used:
MS2 coat protein [1] = test: apparent KD of MS2 coat protein, switch OFF state (with FMN for OFF switches, without FMN for ON switches); designed switch direction (-1 OFF switch, 1 ON switch): -1; higher = weaker reporter binding; settings: FMN input: 0 or 200 uM; Eterna round: R93 (includes R88 designs)
In short: (§1)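 Designed RNA switches were transcribed on-chip from Illumina sequencing clusters. They were then titrated with SNAP-549-labelled MS2 coat protein (twofold steps, 0.7 or 1.5 nM to 3 µM; 0.8–1.5 h to 10–20 min per step) in 100 mM Tris-HCl pH 7.5, 80 mM KCl, 4 mM MgCl2, without or with constant ligand. Apparent KD is the per-design median of normalised cluster binding-curve fits.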

MS2 coat protein [2] = test: apparent KD of MS2 coat protein, switch ON state; designed switch direction (-1 OFF switch, 1 ON switch): -1; higher = weaker reporter binding; settings: FMN input: 0 or 200 uM; Eterna round: R93 (includes R88 designs)
In short: as §1

Row | Sequence | apparent KD of MS2 coat protein (MS2 coat protein [1]) | apparent KD of MS2 coat protein (MS2 coat protein [2])
1 | GAUAGGCGAGGAUAUACAUGAGGAUCACCCAUGUAAGUAAGCCUGGCUGAAACUGAAUGUAGAAGGCGCACAUU [Ex3Try2_Neo] | 39.6 nM | 16.2 nM
2 | GAUCCACAUGAGGAUCACCCAUGUAAGGAUAUUUAAAACCGGAGACAACCCUCCGAAGAAAGAAGGUACAAAAC [Ququraes] | 12.6 nM | 13 nM
3 | GGAAAACAUGAGGAUCACCCAUGUAAGGAUAUGCAAAAAAAGGAUAUAGAAGGAAAAAGCAGAAGGUACAAAGG [salish99-ex1-24] | 55.5 nM | 30.6 nM
4 | GGAAAACAUGAGGAUCACCCAUGUCAGGAUAUACAAAGAAAGAAAGAAAAGAAAGAAAGUAGAAGGGACUAAAG [Amethyst 16] | 37.9 nM | 20.4 nM
5 | GGAAAACAUGAGGAUCACCCAUGUGAGGAUAUCGAUGUCCAAUAAAAAGUGCGGGACUCGAGAAGGCACUUGGA [salish99-ex1-41] | 29.2 nM | 36.2 nM
6 | GGAAAGCGAGGAUAUACAUGAGGAUCACCCAUGUAAACAAACAAACAAACAAACAAAUGUAGAAGGCGCAAAAC [Exclusion 3 Strange] | 50.6 nM | 49 nM
7 | GGAGUGCAAGGAUAUACAUGAGGAUCACCCAUGUGAGAGAAAAAAGUGAGAAAGAAAAGUAGAAGGUGCGUUCG [salish99-ex3-131] | 44.8 nM | 29.2 nM
8 | GGGUACGCAGGAUAUACAUGAAAAAAAAAAAAAAAAAAAAAACAUGAGGAUCACCCAUGUAGAAGGGCGUAUCC [hsl_exclusion2] | 314 nM | 92.5 nM
9 | GGGUCACAUGAGGAUCACCCAUGUAAGGAUAUGCUAGGGAUGGAAGCCAGGCCAAAAAGCAGAAGGUACUAAAG [Janelle Amethyst 18 Mod 15 - Jieux - Exclusion 1] | 85.8 nM | 41.2 nM
10 | GGUUGAAUAGGAUAUACAUGAGGAUCACCCAUGUGAGAGAAAAAAGUGAGAAAGAAAAGUAGAAGGAUUUGACG [salish99-ex3-61] | 65.1 nM | 34.7 nM
11 | GGUUGGCGAGGAUAUACAUGAGGAUCACCCAUGUGAGAGAAAAAAGUGAGAAAGAAUAGUAGAAGGCGCUGACG [salish99-ex3-40] | 255 nM | 42.5 nM
12 | GGUUGGCGAGGAUAUACAUGAGGAUCACCCAUGUGAGAGAAAAAAGUGAGAAAGAUAAGUAGAAGGCGCUGACG [salish99-ex3-39] | 169 nM | 80.3 nM
13 | GGUUGGCGAGGAUAUACAUGAGGAUCACCCAUGUGAGAGAAAAAAGUGAGAUAGAAAAGUAGAAGGCGCUGACG [salish99-ex3-34] | 286 nM | 58.8 nM
14 | GGUUGGCGAGGAUAUACAUGAGGAUCACCCAUGUGAGAGAAAAAAGUGAGGAAGAAAAGUAGAAGGCGCUGACG [salish99-ex3-14] | 636 nM | 32 nM
15 | GGUUGUGAAGGAUAUACAUGAGGAUCACCCAUGUGAGAGAAAAAAGUGAGAAAGAAAAGUAGAAGGUCGUGACG [salish99-ex3-73] | 40.2 nM | 34.7 nM
16 | GUAAACCUAGGAUAUACAUGAGGAUCACCCAUGUAAAAUUUCAUAAAAAGAAAAUCAAGUAGAAGGAGGUAGAU [JR_Exc003_Sub1223] | 24.8 nM | 17.3 nM
17 | GUGUACAGAGGAUAUACAUGAGCUAGGAAACUAGCAAGAUCACAUGAGGAUCACCCAUGUAGAAGGCUGUACAC [Ex2: 734] | 16.3 nM | 70 nM
18 | GUUGUGCGAGGAUAUAUGUGAGGUUUGCCUCAACAGGUAAUACAUGAGGAUCACCCAUGUAGAAGGCGCAUGAG [S1-(23.6);S2-(22.1) [87C]] | 342 nM | 67.3 nM
19 | UAAAAACAUGAGGAUCACCCAUGUGAGGAUAUCGAAAAAAAAAAAUUAAAAAAGGAAGCGAGAAGGUACGGGAU [close, no cigar] | 33.2 nM | 33.3 nM
20 | UAAAGACAUGAGGAUCACCCAUGUGAGGAUAUCGGAGAUAACAGAACAUCAAGUUCAGCGAGAAGGCACAGAAA [JR_Exc001_Sub402] | 72 nM | 47.2 nM
21 | UAAAGACAUGAGGAUCACCCAUGUGAGGAUAUCGGAGGUGACGGAACAUCGAGUUCGGCGAGAAGGCGCAGGAA [JR_Exc001_Sub408] | 49 nM | 69.6 nM
22 | UAGAACCUAGGAUAUACUUGGACCACUAAUUUACAGAUAUAACAUGAGGAUCACCCAUGUAGAAGGAGGAGUAA [JR_Exc002_Sub202] | 25.7 nM | 36.8 nM
23 | UAUAUACAUGAGGAUCACCCAUGUCAGGAUAUGCGCCUAGAAUAUACAUAAGAUACAAGCAGAAGGGACACUAA [JR_Exc001_Sub206] | 49.9 nM | 57.3 nM
